Experimental data: paper PMC9544252

What was measured:
[1] = target: HIV-1 CAP256 SU Env gp140, "glycan-enhanced" (GE), produced in N. benthamiana ∆XF (HIV-1 (subtype C, CAP256 SU)); assay: SEC; gel filtration of lectin-purified gp140; normalised, overlaid elution profiles
[2] = target: HIV-1 CAP256 SU Env gp140 produced in HEK293 cells (HIV-1 (subtype C, CAP256 SU)); assay: as above

| Substance | stoichiometry N [1] | stoichiometry N [2] |
| --- | --- | --- |
| HIV-1 CAP256 SU Env gp140, "glycan-enhanced" (GE), produced in N. benthamiana ∆XF (natural protein) | 3 |  |
| HIV-1 CAP256 SU Env gp140 produced in HEK293 cells (natural protein) |  | 3 |
